In US20160237160A1, “ANTI-TWEAKR ANTIBODIES AND USES THEREOF” (BAYER PHARMA AKTIENGESELLSCHAFT, priority 2013, published 2016):

Biological target: TWEAKR (TNFRSF12A, FN14), human, on tumor cell lines (human) (UniProt Q9NP84)
Test: cell-based or functional assay

## recombinant human TWEAK (R&D, #1090-TW-025/CF) (ligand)
  % Inhibition of proliferation, 786-O cells, 96h, 100 ng/ml: 12%
  % Inhibition of proliferation, A253 cells, 72h, 300 ng/ml: > 100%
  % Inhibition of proliferation, HT-29 cells, 24h, 300 ng/ml: 98%
  % Inhibition of proliferation, LOVO cells, 72h, 100 ng/ml: 53%
  % Inhibition of proliferation, NCI-H1975 cells, 72h, 100 ng/ml: 56%
  % Inhibition of proliferation, SW480 cells, 72h, 100 ng/ml: 0%
  Fold induction of Caspase 3/7, 786-O cells, 300 ng/ml: 1.45 fold
  Fold induction of Caspase 3/7, A253 cells, 300 ng/ml: 1.53 fold
  Fold induction of Caspase 3/7, HT-29 cells, 300 ng/ml: 2.31 fold
  Fold induction of Caspase 3/7, NCI-H322 cells, 100 ng/ml: 1.39 fold
  Fold induction of Caspase 3/7, WiDr cells, 300 ng/ml: 1.22 fold
